# Measured values as given in patent US9845340B2, “Peptides that specifically bind HGF receptor (cMet) and uses thereof” (Dyax Corp., priority 2003, dated 2017).
# Experiments:
# [1] = target: T1, 3T3 cells that over-express human cMet (Homo sapiens, UniProt P08581); experiment: Whole cell ELISA of peptide-displaying phage; type: cell-based; conditions: phage isolate; 3T3 cells expressing human cMet vs. non-expressing 3T3 cells
# T1 construct: expressed in transfected cells; host or cells: 3T3 cells
# T1 sequence (P08581 25-1390): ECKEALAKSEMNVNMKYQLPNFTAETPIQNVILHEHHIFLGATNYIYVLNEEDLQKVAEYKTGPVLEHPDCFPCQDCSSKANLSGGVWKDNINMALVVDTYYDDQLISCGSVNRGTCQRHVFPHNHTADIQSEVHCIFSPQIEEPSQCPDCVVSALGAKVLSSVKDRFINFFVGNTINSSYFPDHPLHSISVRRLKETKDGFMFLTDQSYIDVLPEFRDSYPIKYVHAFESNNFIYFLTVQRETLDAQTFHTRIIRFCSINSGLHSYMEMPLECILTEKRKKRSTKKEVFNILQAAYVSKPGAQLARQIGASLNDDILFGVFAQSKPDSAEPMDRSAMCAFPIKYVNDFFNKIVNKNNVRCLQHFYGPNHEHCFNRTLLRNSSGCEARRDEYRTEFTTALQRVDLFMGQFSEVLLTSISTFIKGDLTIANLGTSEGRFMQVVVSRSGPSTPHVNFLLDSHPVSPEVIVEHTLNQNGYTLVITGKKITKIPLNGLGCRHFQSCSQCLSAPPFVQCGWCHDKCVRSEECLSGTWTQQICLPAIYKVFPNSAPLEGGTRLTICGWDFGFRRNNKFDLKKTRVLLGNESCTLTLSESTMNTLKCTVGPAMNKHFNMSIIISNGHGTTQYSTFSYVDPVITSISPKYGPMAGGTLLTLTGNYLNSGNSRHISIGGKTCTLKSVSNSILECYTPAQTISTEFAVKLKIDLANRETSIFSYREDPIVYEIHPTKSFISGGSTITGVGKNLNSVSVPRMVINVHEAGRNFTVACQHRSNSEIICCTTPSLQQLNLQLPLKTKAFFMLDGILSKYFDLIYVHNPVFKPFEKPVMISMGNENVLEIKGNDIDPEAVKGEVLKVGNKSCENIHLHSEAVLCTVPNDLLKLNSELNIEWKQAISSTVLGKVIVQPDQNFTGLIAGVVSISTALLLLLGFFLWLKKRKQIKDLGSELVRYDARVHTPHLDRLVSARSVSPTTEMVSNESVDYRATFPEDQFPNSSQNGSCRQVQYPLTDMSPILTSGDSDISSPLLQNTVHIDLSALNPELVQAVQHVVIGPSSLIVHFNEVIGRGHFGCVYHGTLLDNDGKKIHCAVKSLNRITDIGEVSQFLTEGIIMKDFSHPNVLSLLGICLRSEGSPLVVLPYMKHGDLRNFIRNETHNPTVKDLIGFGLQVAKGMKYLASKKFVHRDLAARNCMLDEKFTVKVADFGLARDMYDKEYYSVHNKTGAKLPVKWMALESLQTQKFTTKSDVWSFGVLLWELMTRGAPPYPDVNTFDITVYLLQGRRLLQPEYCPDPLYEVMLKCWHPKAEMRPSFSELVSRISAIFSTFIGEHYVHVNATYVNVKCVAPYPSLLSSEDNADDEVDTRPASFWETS
# Procedure: Whole cell ELISAs were performed using 3T3 cells that over-express human cMet. […] Briefly, 96-well plates were seeded with 10^5 cells per well. The plates were centrifuged for 5 minutes at 1600 rpm to pellet the cells. The resulting cell layer was fixed with 0.1% (v/v) glutaraldehyde for 12 minutes at 37 C. […] Peptide-displaying phage also were blocked in the above solution for 1 hour at 37 C. 100 μL of blocked phage was then added to each well and the plates were incubated for 1 hour at room temperature. The plates were washed with PBST. cMet-binding peptide-displaying phage were detected using an HRP-conjugated anti-M13 antibody.
# cMet-Fc fusion protein = cMet-Fc fusion protein (Homo sapiens, UniProt P08581); experiment: Protein phage ELISA: peptide-displaying phage binding to soluble cMet-Fc versus TRAIL-Fc; conditions: phage isolate; cMet-Fc vs. TRAIL-Fc
# Sequence of cMet-Fc fusion protein (P08581 25-307 limits assumed): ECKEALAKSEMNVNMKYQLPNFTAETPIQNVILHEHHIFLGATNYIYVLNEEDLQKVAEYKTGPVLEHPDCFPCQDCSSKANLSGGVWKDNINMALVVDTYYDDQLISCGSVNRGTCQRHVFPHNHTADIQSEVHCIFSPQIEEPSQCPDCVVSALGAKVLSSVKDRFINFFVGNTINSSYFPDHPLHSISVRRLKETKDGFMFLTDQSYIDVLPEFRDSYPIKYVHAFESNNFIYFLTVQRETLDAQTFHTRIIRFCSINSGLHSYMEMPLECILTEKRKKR
# Sequence of cMet-Fc fusion protein (P08581 with tags, fused parts or gaps limits assumed): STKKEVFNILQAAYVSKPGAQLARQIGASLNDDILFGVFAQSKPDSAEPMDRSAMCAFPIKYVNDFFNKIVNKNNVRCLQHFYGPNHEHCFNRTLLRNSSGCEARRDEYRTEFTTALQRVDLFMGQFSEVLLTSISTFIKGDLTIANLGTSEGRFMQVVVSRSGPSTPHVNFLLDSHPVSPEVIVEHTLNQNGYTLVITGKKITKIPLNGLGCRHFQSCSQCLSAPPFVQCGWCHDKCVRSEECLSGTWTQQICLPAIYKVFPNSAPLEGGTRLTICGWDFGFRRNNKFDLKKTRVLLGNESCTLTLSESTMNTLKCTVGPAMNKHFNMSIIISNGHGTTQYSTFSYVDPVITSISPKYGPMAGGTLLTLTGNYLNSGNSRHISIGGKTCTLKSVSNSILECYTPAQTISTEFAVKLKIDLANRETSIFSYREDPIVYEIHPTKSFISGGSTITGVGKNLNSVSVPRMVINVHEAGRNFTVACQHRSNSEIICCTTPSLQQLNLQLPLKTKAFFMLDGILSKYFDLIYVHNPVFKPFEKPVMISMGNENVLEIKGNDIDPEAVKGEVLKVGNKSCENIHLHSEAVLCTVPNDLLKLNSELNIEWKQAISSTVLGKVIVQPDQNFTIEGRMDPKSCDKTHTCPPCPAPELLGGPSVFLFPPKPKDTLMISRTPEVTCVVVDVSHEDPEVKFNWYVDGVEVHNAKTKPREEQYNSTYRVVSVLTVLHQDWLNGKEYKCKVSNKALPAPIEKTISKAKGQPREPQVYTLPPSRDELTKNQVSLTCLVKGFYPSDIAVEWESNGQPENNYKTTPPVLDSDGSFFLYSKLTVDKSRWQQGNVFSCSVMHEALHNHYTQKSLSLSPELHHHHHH
# Procedure: Protein phage ELISAs using peptide-displaying phage isolates from the various selection campaigns were performed to determine specificity of the peptides for cMet versus an unrelated Fc-fusion protein (TRAIL-Fc). Briefly, 384-well plates were coated overnight at 4 C with 0.5 μg/mL of cMet-Fc fusion protein or TRAIL-Fc fusion protein (background). The plates were blocked for 2 hours 37C with 3% (w/v) BSA in PBS containing 0.05% (v/v) Tween-20 (PBST). The plates were washed with PBST and 100 μL of peptide-displaying phage were added to each well. The plates were incubated for 2 hours at room temperature and washed with PBST. cMet-binding peptide-displaying phage were detected using an HRP-conjugated anti-M13 antibody.
compound,measurement,setting,value
AGYPECKDNYHWCEWKGT (Synthetically generated cMet-binding peptide sequence) [SEQ ID NO: 024],WC ELISA,[1],1.30 fold over background
same,Protein ELISA,cMet-Fc fusion protein,14.5 fold over background
CC[C@H](C)[C@H](NC(=O)[C@H](Cc1c[nH]cn1)NC(=O)[C@H](CC(C)C)NC(=O)[C@@H](NC(=O)[C@H](CCSC)NC(=O)[C@H](CCSC)NC(=O)[C@H](CCC(N)=O)NC(=O)CNC(=O)[C@H](Cc1ccc(O)cc1)NC(=O)[C@H](CCC(N)=O)NC(=O)[C@H](Cc1c[nH]cn1)NC(=O)[C@H](CCC(N)=O)NC(=O)[C@H](C)NC(C)=O)C(C)C)C(=O)N[C@@H](CCC(N)=O)C(=O)N[C@@H](Cc1ccc(O)cc1)C(=O)N[C@@H](CC(=O)O)C(=O)N[C@@H](CCSC)C(=O)NCC(=O)N[C@@H](CCC(=O)O)C(=O)N[C@@H](Cc1ccccc1)C(=O)N[C@H](C(=O)N1CCC[C@H]1C(=O)NCC(=O)NCC(=O)NCC(=O)N[C@@H](CCCCNC(=O)c1ccc2c(c1)C(=O)OC21c2ccc(O)cc2Oc2cc(O)ccc21)C(N)=O)[C@@H](C)CC [SEQ ID NO: 462],WC ELISA,[1],1.27 fold over background
same,Protein ELISA,cMet-Fc fusion protein,4.5 fold over background
AGKTVCQKWESVCSGMGT (Synthetically generated cMet-binding peptide sequence) [SEQ ID NO: 038],WC ELISA,[1],1.30 fold over background
same,Protein ELISA,cMet-Fc fusion protein,3.1 fold over background
CC(=O)N[C@@H](C)C(=O)NCC(=O)N[C@@H](CO)C(=O)N[C@@H](Cc1ccccc1)C(=O)N[C@@H](C)C(=O)N[C@H]1CSSC[C@@H](C(=O)N[C@H](C(=O)N[C@@H](CCC(=O)O)C(=O)N[C@@H](Cc2ccccc2)C(=O)NCC(=O)N[C@H](C(=O)NCC(=O)NCC(=O)NCC(=O)N[C@@H](CCCCNC(=O)c2ccc3c(c2)C(=O)OC32c3ccc(O)cc3Oc3cc(O)ccc32)C(N)=O)[C@@H](C)O)C(C)C)NC(=O)[C@H](C)NC(=O)[C@H](Cc2ccccc2)NC(=O)[C@H]([C@@H](C)O)NC(=O)[C@@H]2CCCN2C(=O)[C@@H]2CCCN2C(=O)CNC(=O)[C@H](CCCCN)NC1=O [SEQ ID NO: 053],WC ELISA,[1],1.27 fold over background
same,Protein ELISA,cMet-Fc fusion protein,18.1 fold over background
AGETKCSGPPYFYCWMEGT (Synthetically generated cMet-binding peptide sequence) [SEQ ID NO: 093],WC ELISA,[1],1.23 fold over background
same,Protein ELISA,cMet-Fc fusion protein,16.3 fold over background
AGPLFCFEWPSLCHWGGT (Synthetically generated cMet-binding peptide sequence) [SEQ ID NO: 033],WC ELISA,[1],1.43 fold over background
same,Protein ELISA,cMet-Fc fusion protein,3.8 fold over background
CC[C@H](C)[C@H](NC(=O)[C@H](CC(C)C)NC(=O)[C@H](CCCCN)NC(=O)[C@H](CCC(=O)O)NC(=O)[C@@H](NC(=O)[C@@H](NC(=O)[C@@H](NC(=O)[C@H](C)NC(=O)[C@H](CO)NC(=O)[C@H](CC(C)C)NC(=O)[C@H](Cc1c[nH]c2ccccc12)NC(=O)[C@H](CC(=O)O)NC(=O)[C@@H]1CCCN1C(=O)[C@@H](NC(=O)[C@H](CCC(N)=O)NC(=O)[C@H](C)NC(C)=O)C(C)C)C(C)C)C(C)C)[C@@H](C)CC)C(=O)N[C@@H](CCC(=O)O)C(=O)N[C@@H](Cc1ccc(O)cc1)C(=O)NCC(=O)N[C@@H](CCSC)C(=O)N[C@@H](CCSC)C(=O)N[C@H](C(=O)NCC(=O)NCC(=O)NCC(=O)N[C@@H](CCCCNC(=O)c1ccc2c(c1)C(=O)OC21c2ccc(O)cc2Oc2cc(O)ccc21)C(N)=O)C(C)C [SEQ ID NO: 464],WC ELISA,[1],1.37 fold over background
same,Protein ELISA,cMet-Fc fusion protein,4.4 fold over background
GDNRFCSWVYNVDDWWCVDNDP (Synthetically generated cMet-binding peptide sequence) [SEQ ID NO: 398],WC ELISA,[1],1.30 fold over background
same,Protein ELISA,cMet-Fc fusion protein,6.2 fold over background
AGVNSCLGPPTFECYQMGT (Synthetically generated cMet-binding peptide sequence) [SEQ ID NO: 076],WC ELISA,[1],1.20 fold over background
same,Protein ELISA,cMet-Fc fusion protein,5.7 fold over background
AGGHWCLELKHLCPPYGT (Synthetically generated cMet-binding peptide sequence) [SEQ ID NO: 044],WC ELISA,[1],1.23 fold over background
same,Protein ELISA,cMet-Fc fusion protein,4.1 fold over background
GSGMGCHQVNISTGDCAEDAP (Synthetically generated cMet-binding peptide sequence) [SEQ ID NO: 381],WC ELISA,[1],1.43 fold over background
same,Protein ELISA,cMet-Fc fusion protein,3.9 fold over background
AGQMWCAEKNSKCYQWGT (Synthetically generated cMet-binding peptide sequence) [SEQ ID NO: 030],WC ELISA,[1],1.27 fold over background
same,Protein ELISA,cMet-Fc fusion protein,3.2 fold over background
AGFVNCKGPPTFECILTGT (Synthetically generated cMet-binding peptide sequence) [SEQ ID NO: 057],WC ELISA,[1],1.23 fold over background
same,Protein ELISA,cMet-Fc fusion protein,12.3 fold over background
AGFWDCGWMMQDCHMHGT (Synthetically generated cMet-binding peptide sequence) [SEQ ID NO: 045],WC ELISA,[1],1.33 fold over background
same,Protein ELISA,cMet-Fc fusion protein,3.9 fold over background
AGDFICQGPPSFVCTNIGT (Synthetically generated cMet-binding peptide sequence) [SEQ ID NO: 097],WC ELISA,[1],1.27 fold over background
same,Protein ELISA,cMet-Fc fusion protein,8.4 fold over background
GSFWNCTTDLGAMSDCGFFAP (Synthetically generated cMet-binding peptide sequence) [SEQ ID NO: 383],WC ELISA,[1],1.37 fold over background
same,Protein ELISA,cMet-Fc fusion protein,3.1 fold over background
GDGFLCRWENGWCEFWDP (Synthetically generated cMet-binding peptide sequence) [SEQ ID NO: 047],WC ELISA,[1],1.30 fold over background
same,Protein ELISA,cMet-Fc fusion protein,4.7 fold over background
AGGFACGPPWDICWMFGT (Synthetically generated cMet-binding peptide sequence) [SEQ ID NO: 011],WC ELISA,[1],1.30 fold over background
same,Protein ELISA,cMet-Fc fusion protein,5.6 fold over background
CC[C@H](C)[C@H](NC(=O)[C@@H](NC(=O)[C@H](CCC(=O)O)NC(=O)[C@H](Cc1c[nH]cn1)NC(=O)[C@@H](NC(=O)[C@H](C)NC(=O)[C@@H]1CCCN1C(=O)[C@H](CC(N)=O)NC(=O)[C@H](Cc1ccccc1)NC(=O)[C@H](CCCCN)NC(=O)[C@H](Cc1ccccc1)NC(=O)[C@H](Cc1c[nH]cn1)NC(=O)[C@@H](NC(=O)[C@@H](NC(=O)[C@H](C)NC(=O)[C@H](CCSC)NC(=O)[C@H](CC(=O)O)NC(=O)[C@H](CCC(=O)O)NC(=O)[C@@H](NC(=O)[C@H](CCC(N)=O)NC(=O)[C@H](C)NC(C)=O)C(C)C)[C@@H](C)O)C(C)C)[C@@H](C)O)C(C)C)C(=O)N[C@@H](Cc1c[nH]c2ccccc12)C(=O)NCC(=O)NCC(=O)NCC(=O)N[C@@H](CCCCNC(=O)c1ccc2c(c1)C(=O)OC21c2ccc(O)cc2Oc2cc(O)ccc21)C(N)=O [SEQ ID NO: 492],WC ELISA,[1],1.53 fold over background
same,Protein ELISA,cMet-Fc fusion protein,3.2 fold over background
AQFDRYWHFAWMDVSFSSGQSG (Synthetically generated cMet-binding peptide sequence) [SEQ ID NO: 465],WC ELISA,[1],1.20 fold over background
same,Protein ELISA,cMet-Fc fusion protein,4.3 fold over background
